{"source": "patent US20130266536A1", "about": "“METHOD OF USE OF STABILIZED PLANT-DERIVED GROWTH FACTOR IN SKIN CARE” (priority 2010, published 2013)", "test": "Stability challenge test of plant-made EGF in formulation 1", "format": "physicochemical", "conditions": "reconstituted freeze-dried non-glycosylated EGF in formulation 1; +4° C., RT and +37° C.; up to 3 weeks; gel, FIG. 5", "excerpt": "Size markers 11 and 17 kDa in the first lane. […] (Ref.http://www.cellsciences.com/PDF/CRE100.pdf)", "data": [{"substance": "plant-made EGF: purified, reconstituted freeze-dried, non-glycosylated, plant-made EGF in a formulation as in Example 5, formulation 1", "values": [{"measurement": "stability of the growth factor", "result": "excellent stability"}]}]}
